Laboratory results reported in the RNAGym collection of RNA variant scans (doi:10.1073/pnas.2313332121).

B1: TPR t1 (parent)
chain: GACCAAUCUGCCCUCAGAGCUCGAGAACAUCUUCGGAUGCAGAGGAGGCAGGCUUCGGUGGCGCGAUAGCGCCAACGUCCUCAACCUCCAAUGCAUCCCACCACAUGAUGAUGCCUGAAGAGCCUUGGUUUUUUG

Variants of: B1
Experiment: polymerase ribozyme fitness, log enrichment relative to wild type (log ratio); higher = more active; in vitro selection for triplet polymerase activity
In short: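 After PCR construction and transcription, each subunit's mutant library from a heterodimeric triplet polymerase ribozyme was annealed with a biotinylated primer, the partner subunit and triplets. Incubation was frozen, at −7 °C, and extended constructs were gel-excised, bound to streptavidin beads and amplified by RT-PCR, in one selection round done in triplicate. Fitness is the logarithm of a genotype's enrichment divided by that of the wild type, from inverse-variance-weighted replicate averages of Illumina-sequenced inputs and outputs. The base of the logarithm is 2, and genotypes needed ≥10 input reads and ≥1 read per output.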

Variant	polymerase ribozyme fitness (log ratio)
GACCAACGUGCUCUCAGACCUCGAGAACAUCUUCGGAUGCAGAGGAGGCAGGCUUCGGUGGCGCGAUAGCGCCAACGUCCUCAACCUCCAAUGCAUCCCACCACAUGAUGAUGCAUGAAGAGCCUUGCUUUUUUG [U7C C8G C12U G19C C115A G128C]	-1.55
GACCAACCUGCCCUCAGAGCUCGAGAACAUCUUCGGAUGCAGAGGAGGCAGGCUUCGGUGGCGCGAUAGCGCCAACGUCCUCAACCUCCAAUGCAUCCCUCCACAUGAUGAUGCCUGAAGAGCCUUGGUUUUUUG [U7C A100U]	-0.808
GACCAACCUGCCCUCAGAGCUCGAGAAUAUCUUCGGAUGCAGAGGAGGUCGGCUUCGGUGGCGCGAUAGCGCCAACGUCCUCAACCUCCAAUGCAUCCCACCACAUGAUGAUGCCUGAAAAACCUUGGUUUUUUG [U7C C28U C49U A50C G120A G122A]	-2.33
GACCAACAUGCCCUCAGAGCUCGAGAACAUCUUCGGAUGCAGAGGAGUCAGGCUUCGGUGGCUCGAUAGCGCCAACGUCCUCAACCUCCAAUGCAUCCCACCACAUGAUGAUGCCUGAAUAGUCUUGGUUUUUUG [U7C C8A G48U G63U G120U C123U]	-0.338
GACCAAACUGCCCUCAGAGCUCGAGAACAUCUUCGGAUGCAGAGGAGGCAGGCUUCGGUGGCGCGAUAGCGCAAACGUCCUGAACCUCCAAUGCAUCCCACCACAUGAUGAUGCCUGAAGAGCCUUGGUUUUUUG [U7A C73A C82G]	-0.0183
GACCAACUUGCCCUCAGAGCUCGAGAACAUCUUGGGAUGCAGAGGAGGCAGGCUUCGGUGGCGCGAUAGCGCCAACGUCCUCAACCUCCAAUGCAUCCCACCACAUGAUGAUGCCUGAAGAGCCUUGGUUUUUUG [U7C C8U C34G]	-6.08
GACCAACCUGCCAUCAGAGCUCGAGAAGAUCUUCGGAUGCAGAGGAGGCAGGCUUCGGUGGCGCGAUAUCGCCAACGUCCUCAACCUCCAAUGCAUCCCUCCACAUGAUGAUGCCUGAAGAGCCUUGGUUUUUUG [U7C C13A C28G G69U A100U]	-2.4
GACCAACCUGCACUCAGAGCUCGAGAACAUCUUCGGAUGCAGAGGAGGCAGGCUUCGGUGGCGCGAUAGCGCCAAGGUCCUCAACCUCCAAUGCAUCCCACCACAUGAUGAUGCCUGAAGAGCCUUGGUUUUUUG [U7C C12A C76G]	0.0602
GACCAAACUGCCCUCAGAGCUCGAGAACAUCUUCGGAUGCAGAGGAGGCAGGCUUCGGUGGCGCGAUAGCGUCAACGUCCUCAACCUCCAACGCAUCCCACCACAUGAUGAUGCCUGAAGAGCCUUGGUUUUUUG [U7A C72U U92C]	-0.872
GACCAAACUGCCCUCAGAGCUCGAGAACAUCUUCGGAUGCAGAGGAGGCAGGCUACGGUGGCGCGAUAGCGCCAACGUCCUCAACCUCCAAUGCAUCCCACCACAUGAUGAUGCCCGAAGAGCCUUGGUUUUUUG [U7A U55A U116C]	-0.198
GACCAACCUGCCAUCAGAGCUCGAGAACAUCUUCGGAUGCAGAGGAGGCAGGUUUCGGUGGCGCGAUAGCGCCAACGUCCUCAACCUCCAAUGCAUCCCACCACAUGAUGAUGCCUGAAGAGCCUUGGUUUUUUG [U7C C13A C53U]	-0.742
GACCAACCUGCCCUCAGAGCUCGAGAACAUCUUCGGUUGCAGAGGAGGCAGGCUUCGGUAGCGCGAUAGCGCCAACGUCCUCAACCUCCAAUGCAUCCCACCACAUGAUGAUGCCUGAAGAGCCUUGGUUUUUUG [U7C A37U G60A]	-0.133
GACCAACAUGCCCUCAGAGCUCGAGAACAUCUUCGGAUGCAGAGGAGGCAGGCUUCGGUGGAGCGAUAGCGCCAACGUCCUCAACCUCCAAUGCAUCCCACCACAUGAUGAUGCCUGAAGAGCCUUGGUUUUUUG [U7C C8A C62A]	-0.194
GACCAAACUGCCCUCAGAGCUCGAGAACAUCUACGGAUGCAGAGGAGGCAGGCUUCGGUGGCGCGAUAGUGCCAACGUCCUCAACCUCCAAUGCAUCCCACCACAUGAUGAUGCCUGAAGAGCCUUGGUUUUUUG [U7A U33A C70U]	-5.78
GACCAAACUGCCCUCAUAGCUCGAGAACAUCUUCGGAUGCAGAGGAGGCAGGCUUCGGUGGCGCGAUAGCGCCUACGUCCUCAACCUCCAAUGCAUCCCACCACAUGAUGAUGCCUAGAGAGCCUUGGUUUUUUG [U7A G17U A74U G117A A118G]	-4.25
GACCAAACUGCCCUCAGAGCUCGAGAACAUCUUCGGAUGCAGAGGAGCCAGGCUUCGGUGGCGCGAUAGCGCCUACGUCCUCAACCUCCAAUGCAUCCCACCACAUGAUGAUACCUGAAGAGCCUUGGUCUUGUG [U7A G48C A74U G113A U130C U133G]	-1.3
GACCAAACUGCCCUCAGAGCUCGAGAACAUCUUCGGAUGCAGAGGAGGCAGGCUUCGGUGGCGCGAUAGCGCCAACGUCCUCAACCUCCAAUGCAUCCCACCACAAGAUGAUGCCUGAAGAGCAUUGGUUUUUUG [U7A U106A C124A]	1.98
GACCAAACUGCCCUCAGAGCUCGAGAACAUCUACGGAUGCAGAGGAGGCAGGCUUCGGUGGCGCGAUAGCGCCAACGUCCUCAACCUCCAAUGCAUCCCACCACAUGAUGAUGCCUGAAGAGCCUUGGUUUUUUG [U7A U33A]	-3.98
GACCAAACUGCCCUCAGAGCUCGAGAACAUCUUCGGAUGCAGAGGAGGCAGGCUUCGGUGGCGCGAUAGCGCCAACGUCCUCAACCACGAAUGCAUCCCACCACAUGAUGAUGCCUGAAGAGCCUUGGUUUUUUG [U7A U87A C89G]	-1.86
GACCAAACUGCCCUCAGAGCUCGAGAACAUCUUCGGAUGCAGACGAGGCAGGCUUCGGUGGCGCGAUAGCGCCAACGUCCUCAACCUCCAAUGCAUCCCACCACAUGAUGAUGCCUGAAGAGCGUUGGGUUUUUU [U7A G44C C124G U129G G135U]	-0.681
GACCAACCUGCCAUCAGAGCUCGAGAACAUCUUCGGAUGCAGAGGAGGCAGGCUUCGGUGGCGCGAUAGCGCCAACGUCCUCAACCUCCAAUACAUCCCACAUCAUGAUGAUGCCUGAAGCGCCUUGGUUUUUUG [U7C C13A G93A C102A A103U A121C]	-4.79

Variant	polymerase ribozyme fitness (log ratio)
GACCAAACCGCUCUCAGAGCUCGAGAACAUCUUCGGAUGCAGAGGAGGCAGGCUUCCGUGGCUCGAUAGCGCCAACGUCCUCAACCUCCAAUGCAUCCCACCACAUGAUGAUGCCUGAAGAGCCUUGGUUUUUUG [U7A U9C C12U G57C G63U]	-0.748
GACCAAACUGCCCUCAGAGCUCGAGAACAUCUUCGGAUGCAGAGGAGUCAGGCUUCGGUGGCGCGAUAGCGCCAACGUCCUCAACCUCCAAUGAAUUCCACCACAUGAUGAUGCCUGAAGAGCCUUGGUUUUUUG [U7A G48U C94A C97U]	-2.33
GACCAAACUGCCCUCAGAGCUCGAGAACAUCUUCGGAUGCAGAAGAGGCAGGCUUCGGUGGCGCGAUGGCGCCAACGUCCUCAACCUCCAAUGCAUCCCACCACAUGAUGAUGCCUGAAGAGCCUUGGUUUUUUG [U7A G44A A68G]	-5.14
GACCAACCUGCCCUCUGAGCUCGAGAACAUCUUAGGAUGCAGAGGAGGGAGGCUUCGGUGGCGCGAUAGCGCCAACGUCCUCAACCUCCAAUGCAUCCCACCACAUGAUGAUGCCUGAAGAGCCUUGGUUUUUUG [U7C A16U C34A C49G]	-4.01
GACCAAACUGCCCUCAGAGCUCGAGAACAUCCUCGGAUGCAGAGGAGGCAGGCUCCGGUCGCGCGAUAGCGCCAACGUCCUCAACCUCCAAUGCAUCCCACCACAUGAUGAUGCCUGAAGAGCCUUGGAUUUUUG [U7A U32C U55C G60C U129A]	-1.82
GACCAAACUGCCCUCAGAGCUCGAGAACAUCUUCGGAUGCAGAGGAGGCAGGCUUCGGUGGCUCGAUAGCGCCAACCUCCUCAACCUCCAAGGCAUCCCACCACAUGAUGAUGCCUGAAGAGCCUUGGUUUUUUG [U7A G63U G77C U92G]	-5.12
GACCAAACUGCCCUCAGAGCUCGAGAACAUCUUCGGAUGCAGAGGAGGCAGGCUUCGGUGGCGCGAUAGCCCCAACGUCCGCAACCUCCAAUGCAUCCCACCACAUGAUGAUGCCUGAAGAGCCUUGGUUUUUUG [U7A G71C U81G]	-5.8
GACCAAACUGCCCUCAGAGCUCGAGAACAUCUUCGGAUGCAGAGGAGGCAGGCUUCGGUGGCGCGAUAGCGCCAACGUCCUCAACCUCCAAUGCAUCCCACCACAUGAUGAUUCCUGAAGAGCCUUGGUUUUUUG [U7A G113U]	-2.15
GACCAAACAGACCUCAGAGCUCGAGAACAUCUUCGGAUGCACAGGAUGCAGGCUUCGGUGACGCGAUAGCGCCAACGUCCUCAACCUCCAAUGCAUCCCACCACAUGAUGAUGCCUGUAGAGCCUUGGUUUUUUG [U7A U9A C11A G42C G47U G61A A118U]	-4.21
GACCAAACUGCCCACAGAGCUCGAGAACAUCUUCGGAUGCAGAGGAGGCAGGCUUCGGUGGCGCGAUAGCGCCAACGUCCUCAACCUCCAAUGCAUCCCACCACAUGAUGAUGCCUGAGGAGCCUUGGUUUUUUG [U7A U14A A119G]	0.0679
GACCAACCUGCCCUCAGAGCUCGAGAACGUCUUCGGAUGCAGAGGAGGCAGGCUUCGGUGGCUCGAUAGCGCCAACGUCCACAACCUCCAAUGCAUCCCACCACAUGAUGAUGCCUGAAGAGCCUUGGUUUCUUG [U7C A29G G63U U81A U132C]	-3.82
GACCAAACUGCCCUCAGAGCUCGAGAACAUCUUCGGAUGCAGAGGAGGCAGGCUUCGGUGGCGCGAUAGCGCGAACGUCCUCAACCUCCAAUGCAUCCCACCACAUGAUGAUGCCUGAAGAGCCUUGGUUUUUUG [U7A C73G]	-1.63
GACCAAACUGCCCUCAGAGCUCGAGAACAUCUUCGGAUGCAGAGGAGGCAGGCUUCGGUGGCGCGAUAUCGCCAACGUCCUCAACCUGCAAUGCAUCCCACCACAUGAUGAUGCCUGAAGAACCUUGGUUUUUUG [U7A G69U C88G G122A]	-1.88
GACCAACCUGCCUUAAGAGCUCGAGAACAUCUUCGGAUGCAGAGAAGGCAGGCUUCGGUGGCGCGAUAGCGACAACGUCCUCAACCUCCAAUGCAUCCCACCACAUGAUGAUGCCUGAAGAGCCUUGGUUUUUUG [U7C C13U C15A G45A C72A]	-0.674
GACCAAACUGCCCUCAGAGCUCGAGAACAUCUUCGGAUGCAGAGGAGGCAGGCUUCGGUGGCGCGAUAGCGCCAACGUGCUCAACCUGCAAUGCAUCCCACCACAUGAUGAAGCCUGAAGAGCCUUGGUUUUUUG [U7A C79G C88G U112A]	-1.87
GACCAAACUGCCCUCAGAGCUCGAGAACAUCUUCGGAUGCAGAGGAGGCAGGCUUCGGUCGCGCGAUAGCGUCAACGUCCUCAACCUCCAAUGCAUCCCACCACAUGAUGAUGCCUGAAGAGCCUUGGUUUUUUG [U7A G60C C72U]	0.796
GACCAAACUGCCCUCAGAGCUCGAGAACAUCUUCGGAUGCAGAGGAGGCAGGCUUCGGUGGCGCGAUAGCGCCAACGUCCUCAAUCUCCAAUGCAUCCCACCACAUGAUGAUGCCUGAAGAGCCGUGGUUUUUUG [U7A C85U U125G]	-1.31
GACCAAACUGCCCUCAGAGCUCGAGAACAUCUUCGGAUGCAGAGGAGGCAGACUUCGGUGGCGCGAUACCGCCAACGUCCUCAACCUCCAAUGCAUCCCACCACAUGAUGAUGCCUGAAGAGCCUUGGUUUUUUG [U7A G52A G69C]	-2.28
GACCAACCUGCACUCAGAGCUCGAGAACAUCUUCGGAUGCAGAGGAGGCAGGCUUCGGUGGCGCGAUAGCGCCAACGUCCUCAACCUACAAUGCAACCCACCAUAUGAUGAUGCCUGAAGAGCCUUGGUUUUUUG [U7C C12A C88A U96A C104U]	-1.43
GACCAAACUGCCCUCAGAGCUCGAGAACAUCUUCGGAUACACAGCAGGCAGGCUUCGGUGGCGCGAUAGCGCCAACGUCCUCUACCUCCAAUGCAUCCCACCACAUGAUAAUGCCUGAAGAGCCUUGGUUUUUUG [U7A G39A G42C G45C A83U G110A]	-5.83
GACCAACUUGCCCUCAGAGCUCGAGAACAUCUUGGGAUGCAGAGGAGGCAGGCUUCGGUGGCGCGAUAGCGCUAACGUCCUCAACCUCCAAUGCAUCCCACCACAUGAUGAUGCCUGAAGAGCCUUGGUUUUUUG [U7C C8U C34G C73U]	-5.57
